The target of this assay is T1, 6×His-tagged Kv3.1 T1 domain (His-31T1) (UniProt P25122 1-190).
T1 sequence (looked up): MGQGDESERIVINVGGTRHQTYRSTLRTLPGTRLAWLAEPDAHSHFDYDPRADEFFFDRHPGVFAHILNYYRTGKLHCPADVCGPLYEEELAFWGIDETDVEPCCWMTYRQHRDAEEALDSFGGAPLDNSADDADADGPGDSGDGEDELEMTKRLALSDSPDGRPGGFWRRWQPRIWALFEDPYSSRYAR
Kind of assay: SPR. In general terms: In SPR one partner is held on a chip, and binding of the other changes the refractive index at the surface.

B1: GST-fused MAP6 Mn modules (GST-M115–221; aa 115–221 from MAP6N) (domain or fragment, UniProt Q63560 115-221, looked up)
chain: ADSVMRQDYRAWKVQRPEPSCRPRSEYQPSDAPFERETQYQKDFRAWPLPRRGDHPWIPKPVQIPATSQPSPPVLGMPKRRPQSQERGPIQLSADARDPEGAGGAGV
As usually defined, the Kd is the equilibrium constant for the complex coming apart. Higher therefore signals a looser complex. B1 displayed a Kd of 62.5 ± 18.4 nM.
